Consider 3 molecules from patent US20140315251A1 (ZOETIS SERVICES, published 2014).

For assay [1], the target named is T1, feline IL-31 full-length construct for E. coli expression (feline).
T1 construct: Purified from E. coli under denaturing conditions and dialysed; also called feline IL-31 protein
T1 chain: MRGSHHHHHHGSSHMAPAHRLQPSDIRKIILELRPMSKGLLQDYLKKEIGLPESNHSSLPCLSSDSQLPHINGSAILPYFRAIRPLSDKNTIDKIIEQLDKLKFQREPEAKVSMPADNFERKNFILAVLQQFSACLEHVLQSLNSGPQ
As to the kind of experiment: Western blot of purified IL-31 proteins. On the technique in general: Immunoblotting shows a protein as a band on a membrane.

The target of the next assay is T2, pET101D-lacZ protein (UniProt P00722 1-1024 = β-galactosidase, limits assumed).
T2 construct: Control lane on the truncation blots; also called beta-galactosidase (lacZ)
Briefly: Western blot of crude E. coli lysates. The method, then: (§1) It was observed that the full length IL-31 protein was expressed very poorly. […] Antibodies 11E12 and 34D03 all bound to the −20N protein. Therefore, further work was carried out using this −20 N construct. Constructs representing C-terminal truncations at positions 20-122 (MW 15.3 with his tag), 20-100 (MW 12.9 with his tag), and 20-80 (MW 10.4 with his tag), were made to assess mAb binding to these areas on the IL-31 protein. The amino acid and nucleotide sequences corresponding to the 20-122 construct are SEQ ID NOs: 63 and 64, respectively. The amino acid and nucleotide sequences corresponding to the 20-100 construct are SEQ ID NOs: 65 and 66, respectively. The amino acid and nucleotide sequences corresponding to the 20-80 construct are SEQ ID NOs: 67 and 68, respectively. […] This region corresponds to amino acid Nos. between amino acid residues 102 and 122 of the canine IL-31 full-length protein sequence of SEQ ID NO: 32. […] In addition, the pET101D-lacZ protein was used as a control to confirm the lack of non-specific binding of mAbs to host proteins.

In assay [2] the target is T3, canine IL-31 full-length construct for E. coli expression (canine).
T3 construct: also called canine IL-31 (E. coli)
T3 chain: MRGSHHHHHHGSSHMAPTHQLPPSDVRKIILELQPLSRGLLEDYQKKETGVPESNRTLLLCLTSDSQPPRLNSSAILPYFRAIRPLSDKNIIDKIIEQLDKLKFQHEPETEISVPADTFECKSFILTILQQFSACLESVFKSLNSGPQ
Briefly: Western blot of purified IL-31 proteins.

The target in assay [3] is T4, canine IL-31 20-122 construct (canine).
T4 construct: also called C-terminal truncation at positions 20-122
T4 chain: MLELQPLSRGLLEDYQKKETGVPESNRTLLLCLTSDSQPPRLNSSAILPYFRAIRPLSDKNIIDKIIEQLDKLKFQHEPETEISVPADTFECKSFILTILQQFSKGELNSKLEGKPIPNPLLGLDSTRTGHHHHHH
As to the kind of experiment: Western blot of crude E. coli lysates. The procedure:
as §1

Assay [4] addresses T5, canine IL-31 -20N construct (canine).
T5 construct: Crude E. coli lysate on Western blot; also called N-terminal truncation -20N; -20N protein
Briefly: Western blot of crude E. coli lysates. The procedure:
as §1

The target of assay [5] is T6, canine IL-31 20-100 construct (canine).
T6 construct: The range counts on the full-length E. coli construct; also called C-terminal truncation at positions 20-100
Briefly: Western blot of crude E. coli lysates. The method, then: as §1

Assay [6] concerns the target T7, canine IL-31 -60N construct (canine).
T7 construct: Crude E. coli lysate on Western blot; also called N-terminal truncation -60N
Briefly: Western blot of crude E. coli lysates. The method, then:
as §1

Assay [7] concerns the target T8, canine IL-31 -40N construct (canine).
T8 construct: Crude E. coli lysate on Western blot; also called N-terminal truncation -40N
As to the kind of experiment: Western blot of crude E. coli lysates. The method, then: as §1

For assay [8], the target named is T9, canine IL-31 20-80 construct (canine).
T9 construct: The range counts on the full-length E. coli construct; also called C-terminal truncation at positions 20-80
T9 chain: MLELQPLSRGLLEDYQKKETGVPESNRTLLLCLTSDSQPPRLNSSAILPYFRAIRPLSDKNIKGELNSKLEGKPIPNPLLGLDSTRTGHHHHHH
Briefly: Western blot of crude E. coli lysates. The method, then:
as §1

In assay [9] the target is T10, canine IL-31 with triple alanine substitution (I81A, D82A, I85A) (canine).
T10 construct: Positions count on the full-length E. coli construct; also called triple mutation
Briefly: Western blot of E. coli lysates. An excerpt: (§2) To examine the impact of multiple mutations in the region of IL-31 important for binding to the 11E12 and 34D03 antibodies, expression plasmids were constructed with double (D82A, […]) and triple (I81A, D82A, I85A) alanine substitutions. E. coli lysates expressing canine IL-31 with these double and triple mutations in addition to the −20N control were blotted with 11E12 and 34D03 antibodies (FIG. 16). It is apparent that these three amino acids on canine IL-31 are involved with recognition of 11E12 and 34D03 as complete abrogation of binding is observed when these sites are changed to alanine. These three amino acids correspond to amino acid residues 103, 104 and 107 of the canine IL-31 full-length protein sequence of SEQ ID NO: 32.

Assay [10] addresses T11, canine IL-31 with double alanine substitution (D82A, I85A) (canine).
T11 construct: The -20N backbone is stated for the alanine scan and -20N was the control on this blot; also called double mutation
Briefly: Western blot of E. coli lysates.
Description: as §2

The target in assay [11] is T1, feline IL-31 full-length construct for …. Briefly: Western blot under reducing conditions, purified protein from mammalian and E. coli sources.

T2 sequence (P00722 whole entry, the tested form may be a part): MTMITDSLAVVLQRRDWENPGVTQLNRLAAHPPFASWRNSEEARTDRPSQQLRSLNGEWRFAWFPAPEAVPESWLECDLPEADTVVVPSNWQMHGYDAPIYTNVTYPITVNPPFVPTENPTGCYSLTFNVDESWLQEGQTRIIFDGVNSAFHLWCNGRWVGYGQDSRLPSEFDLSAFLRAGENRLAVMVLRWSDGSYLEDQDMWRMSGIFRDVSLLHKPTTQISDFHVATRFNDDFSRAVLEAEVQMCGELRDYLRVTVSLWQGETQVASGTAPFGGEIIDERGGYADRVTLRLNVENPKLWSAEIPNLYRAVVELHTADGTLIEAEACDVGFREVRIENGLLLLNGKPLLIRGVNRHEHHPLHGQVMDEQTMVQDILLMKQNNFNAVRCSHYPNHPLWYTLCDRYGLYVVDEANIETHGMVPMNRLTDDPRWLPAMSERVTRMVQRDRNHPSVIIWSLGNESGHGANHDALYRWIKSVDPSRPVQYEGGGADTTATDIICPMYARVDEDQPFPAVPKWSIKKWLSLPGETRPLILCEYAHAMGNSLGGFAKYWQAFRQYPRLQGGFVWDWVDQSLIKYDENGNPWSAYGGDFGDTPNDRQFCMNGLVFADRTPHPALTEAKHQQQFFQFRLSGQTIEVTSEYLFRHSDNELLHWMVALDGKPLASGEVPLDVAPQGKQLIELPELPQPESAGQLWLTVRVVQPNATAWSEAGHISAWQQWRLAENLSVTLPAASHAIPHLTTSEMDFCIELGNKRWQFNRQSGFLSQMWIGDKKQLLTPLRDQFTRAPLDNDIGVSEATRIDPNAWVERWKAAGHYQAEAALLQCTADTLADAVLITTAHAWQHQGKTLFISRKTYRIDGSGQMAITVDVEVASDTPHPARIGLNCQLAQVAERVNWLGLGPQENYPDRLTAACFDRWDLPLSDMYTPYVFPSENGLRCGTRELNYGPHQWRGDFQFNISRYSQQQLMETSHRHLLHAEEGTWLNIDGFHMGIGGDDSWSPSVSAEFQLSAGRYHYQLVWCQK

B1: Mouse 11E12 (antibody, V domains shown)
VH: QVQLQQSGAELVKPGASVKLSCKASGYTFKYYDINWVRQRPEQGLEWIGWIFPGDGGTKYNETFKGKATLTTDKSSSTAYMQLSRLTSEDSAVYFCARGGTSVIRDAMDYWGQGTSVTVSS
VL: DIVLTQSPASLAVSLGQRATISCRASESVDNYGISFMHWYQQKPGQPPKLLIYRASNLESGIPARFSGSGSRTDFTLTINPVETDDVATYYCQQSNKDPLTFGAGTKLELK
notes: Mouse hybridoma monoclonal; also called mAb 11E12; MU-11E12
Turning to B1, the values for the binding result (in [1]; with pET101D-lacZ protein) were “binds” and “no binding”, respectively.

B2: Mouse 34D03 (antibody, V domains shown)
VH: EVQLVESGGDLVKPGGSLKLSCAASGFSFSNYGMSWVRQTPDKRLEWVATISYGGSYTYYPDNIKGRFTISRDNAKNTLYLQMSSLKSEDTAMYYCVRGYGYDTMDYWGQGTSVTVSS
VL: DILLTQSPASLAVSLGQRAIISCKASQSVSFAGTGLMHWYQQKPGQQPKLLIYRASNLEAGVPTRFSGSGSRTDFTLNIHPVEEEDAATYFCQQSREYPWTFGGGTKLEIK
notes: Mouse hybridoma monoclonal; also called mAb 34D03; MU-34D03
Turning to B2, the binding result in assay [1] is recorded as “binds”; in [2] it was “binds”; in [3], “binds”; in assay [4] it was “binds”; in [5] it was “binds”; with pET101D-lacZ protein, “no binding”. In addition, the binding result in [6] is given as “binds”; in assay [7] it was “binds”; in assay [8] it was “no binding”; in assay [9] it was “no binding”; in assay [10] it was “no binding”.

B3: Felinized 34D03 (antibody, V domains shown)
VH: DVQLVESGGDLVKPGGSLRLTCVASGFTYSNYGMSWVRQAPGKGLQWVATISYGGSYTYYPDNIKGRFTISRDNAKNTLYLQMNSLKTEDTATYYCVRGYGYDTMDYWGQGTLVTVSS
VL: EIQMTQSPSSLSASPGDRVTITCKASQSVSFAGTGLMHWYQQKPGKVPKLLIYRASNLEAGVPSRFSGSGSGTDFTLTISSLEPEDAATYYCQQSREYPWTFGQGTKLEIKR
notes: Produced from HEK cells; also called feline 34D03; felinized antibody 34D03
In the case of B3, the binding result in assay [11] is listed as “binds”.
